Measured values: PMC2132775 (The Journal of Cell Biology, 1998)
Where two headings read alike, the source gives them in different places.

Experiments:
[1] = molecular target: FLA10, the 90-kD subunit of FLA10 kinesin-II (fla10 gene product) (Chlamydomonas reinhardtii (endogenous in flagella)) (UniProt P46869); experiment: SEC + other: sucrose density gradient centrifugation
[2] = molecular target: FLA10, the 90-kD subunit of FLA10 kinesin-II (fla10 gene product) (Chlamydomonas reinhardtii (endogenous in flagella)) (UniProt P46869); experiment: as above; remark: listed apart in the source
[3] = molecular target: T1, p172, IFT particle polypeptide of complex B (Chlamydomonas reinhardtii (endogenous in flagella)), Q5DM57; experiment: sucrose density gradient centrifugation; conditions: remark: other sources report otherwise
T1 chain: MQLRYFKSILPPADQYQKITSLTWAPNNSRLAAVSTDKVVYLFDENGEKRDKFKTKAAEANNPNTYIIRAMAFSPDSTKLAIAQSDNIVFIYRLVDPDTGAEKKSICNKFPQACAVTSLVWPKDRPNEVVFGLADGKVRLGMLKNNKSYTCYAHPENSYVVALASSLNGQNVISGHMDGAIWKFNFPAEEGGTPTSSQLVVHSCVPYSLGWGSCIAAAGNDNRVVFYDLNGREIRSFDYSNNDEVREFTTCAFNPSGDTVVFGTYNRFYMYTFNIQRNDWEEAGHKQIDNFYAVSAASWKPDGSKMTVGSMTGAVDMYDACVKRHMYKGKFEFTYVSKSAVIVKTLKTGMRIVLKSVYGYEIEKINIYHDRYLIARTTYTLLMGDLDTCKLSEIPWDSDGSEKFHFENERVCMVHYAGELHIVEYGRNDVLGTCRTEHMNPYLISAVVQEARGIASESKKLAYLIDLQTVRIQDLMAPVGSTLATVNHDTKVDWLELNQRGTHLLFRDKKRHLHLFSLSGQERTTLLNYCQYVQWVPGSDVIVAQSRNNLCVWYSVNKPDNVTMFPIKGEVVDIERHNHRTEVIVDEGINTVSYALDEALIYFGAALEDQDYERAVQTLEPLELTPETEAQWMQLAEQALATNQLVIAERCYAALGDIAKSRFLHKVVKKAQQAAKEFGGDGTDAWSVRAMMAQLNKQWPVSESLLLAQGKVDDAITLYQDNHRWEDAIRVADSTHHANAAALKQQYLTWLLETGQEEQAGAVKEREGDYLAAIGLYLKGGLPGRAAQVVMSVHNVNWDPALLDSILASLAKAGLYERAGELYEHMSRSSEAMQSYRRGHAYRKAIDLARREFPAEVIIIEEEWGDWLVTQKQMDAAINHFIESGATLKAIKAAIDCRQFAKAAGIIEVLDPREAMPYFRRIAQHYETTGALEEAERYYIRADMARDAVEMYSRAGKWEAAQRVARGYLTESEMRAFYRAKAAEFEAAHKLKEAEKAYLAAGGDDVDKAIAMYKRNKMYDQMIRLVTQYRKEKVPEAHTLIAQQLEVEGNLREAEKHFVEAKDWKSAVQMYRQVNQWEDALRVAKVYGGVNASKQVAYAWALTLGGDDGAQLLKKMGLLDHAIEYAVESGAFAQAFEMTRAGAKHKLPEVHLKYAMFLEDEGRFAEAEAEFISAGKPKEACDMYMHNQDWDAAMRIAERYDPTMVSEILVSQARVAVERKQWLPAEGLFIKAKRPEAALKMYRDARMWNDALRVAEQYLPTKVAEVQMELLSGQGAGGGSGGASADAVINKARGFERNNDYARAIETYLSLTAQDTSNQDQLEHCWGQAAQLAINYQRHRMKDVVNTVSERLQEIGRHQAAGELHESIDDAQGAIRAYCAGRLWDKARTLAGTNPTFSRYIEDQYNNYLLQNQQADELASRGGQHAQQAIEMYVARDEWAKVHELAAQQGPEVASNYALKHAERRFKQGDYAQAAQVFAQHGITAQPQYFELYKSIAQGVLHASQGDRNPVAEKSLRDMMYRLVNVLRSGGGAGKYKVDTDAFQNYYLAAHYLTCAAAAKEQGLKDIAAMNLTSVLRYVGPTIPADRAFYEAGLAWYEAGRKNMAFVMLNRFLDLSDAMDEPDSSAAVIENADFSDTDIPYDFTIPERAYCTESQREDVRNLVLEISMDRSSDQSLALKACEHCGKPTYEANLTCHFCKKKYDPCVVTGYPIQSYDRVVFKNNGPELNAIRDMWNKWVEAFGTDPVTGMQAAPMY

[4] = molecular target: T2, FLA10, the 90-kD subunit of FLA10 kinesin-II (fla10 gene product) (Chlamydomonas reinhardtii (endogenous …, UniProt P46869 1-786)); experiment: SEC + other: sucrose density gradient centrifugation
T2 sequence (looked up): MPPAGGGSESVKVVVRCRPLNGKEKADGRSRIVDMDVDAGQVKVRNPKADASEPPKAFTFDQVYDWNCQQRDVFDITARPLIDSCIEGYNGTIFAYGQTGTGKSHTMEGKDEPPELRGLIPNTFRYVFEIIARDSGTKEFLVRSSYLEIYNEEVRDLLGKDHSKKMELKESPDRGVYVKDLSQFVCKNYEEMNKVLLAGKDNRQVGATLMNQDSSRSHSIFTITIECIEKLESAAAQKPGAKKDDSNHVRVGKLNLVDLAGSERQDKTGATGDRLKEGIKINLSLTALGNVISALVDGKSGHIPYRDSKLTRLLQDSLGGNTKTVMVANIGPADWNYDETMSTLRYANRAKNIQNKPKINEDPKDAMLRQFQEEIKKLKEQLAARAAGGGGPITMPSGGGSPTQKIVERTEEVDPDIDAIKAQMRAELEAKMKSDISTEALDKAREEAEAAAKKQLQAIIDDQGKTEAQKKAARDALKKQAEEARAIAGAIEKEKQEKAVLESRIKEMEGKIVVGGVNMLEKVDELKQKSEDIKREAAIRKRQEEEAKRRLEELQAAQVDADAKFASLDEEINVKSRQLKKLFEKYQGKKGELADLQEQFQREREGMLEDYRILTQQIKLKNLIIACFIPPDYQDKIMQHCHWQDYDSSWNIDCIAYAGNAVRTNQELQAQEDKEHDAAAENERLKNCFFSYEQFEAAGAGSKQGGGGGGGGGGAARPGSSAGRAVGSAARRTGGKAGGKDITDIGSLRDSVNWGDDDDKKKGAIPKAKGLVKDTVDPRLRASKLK

In the case of “100-kD nonmotor subunit of FLA10 kinesin-II (natural protein)”, the stoichiometry N [1] is reported as 0.8 and the stoichiometry N [2] is reported as 1.

B1: p81, IFT particle polypeptide of complex B, Q68RJ5 1-683 (natural protein)
chain: MGDVSYIVDSLGLPPFSYQMSLLSFTEKGPQELLQLLSDVFSTISPKHQKVDVAKEVPDQTADRLIGFLKIIKYRPNVQDPLLFRQLVAAGDRETLYQILRWVVPQAQLLEKRAFVGYYLSFPDMPEEFNFDPDIMELKEEIKAMQQEFIELHKSSDAIKTLSKDTQALKNKIKSLEEEKERLGEKVERAKGAVDKLPDRSSYMEVCTNLRKQQDEEVNLSTAIQTQRALQEKAEASYHRAAARLRELQTSYQEGSAGKLLETLNEDVKNLRAQVNERYPKEVEKRQKRQAALSEALASGISTEMDLQRLQHQATALHNQITEIQERKVAQDKARQGDKAYLQLRQAQQMATVSARKKEELGAKQERLQEKKTALTAQLDKLNAEGGGSGAVFSEEEWRTKYESMKSKLPIYKKMKKELGDLEAEVFVLAHTEELLASQEGGLLEKVKRLEKQQGISGFTETAQHLEKVSEAKSQMDEEKGMTLIEISRTVEEINNAINQRKQQLAPQIKKLRSVRQDFAEFEAKYLEKKTAYDNVVATFEARTSALEGEVSGLKAEVSENETKYHMLHCQLHITDQNIKKVTSGPAAERLRDKYEAKVKEAEDSTKALRDRQREIKDTHSTGLSQIDIMNDMLRLLQLKLNLARGIAVDMSQYGGGGGAAGGANGGMAGQTYDTGSANVLQL
B1 gave a stoichiometry N [3] of 1.

B2: 85-kD subunit of FLA10 kinesin-II (natural protein, UniProt A7LGV1 1-768, looked up)
chain: MASGGECVKVAVRCRPLNGKEKGDNRATIVEVDNKTGQVTLNNPKGDEPPKTFTFDNAFDWNVTQRDVYDVVARPIVNSVMDGYNGTIFAYGQTGTGKTHTMEGFPTPELQGIIPNCFDHVFETVNSSTGKQWMVRASYLEIYNEEVRDLLSKDPKNKLELKEHKDSGVYVKGLNAFVVKGVPELKNVLEVGKKNRSVGATLMNQDSSRSHSIFTITIETIEQTQAQPEGHIRVGKLNLVDLAGSERQSKTGATGDRLKEATKINLSLSALGNVISALVDGKSGHVPYRDSKLTRLLQDSLGGNTKTIMCANMGPADWNYDETLSTLRYANRAKNIKNKPKINEDPKDAMLREFQDEIARLKAALEAEGGALPEGFATGPGGEIIVEKVVQVPKALDASFLEQMRKDMEEQMKKELASQQAAALNDEQLQKVKEEAAAKAKAEAARLEEEKKKAEEEAARMQRKQQKIKAEMDKKSLDAEQIRAEKEALAKKLKAMESKILKGDQAGGLAEVTKKKEEELKRKEQELERRRKEEEEQRKKIQVMEEQQLAMEDKYKDKADEADQKTKKLKKLWKKFQEVNAEVEDMYKEFQREKEDLLESIRMLQDQMQLKDMVIEAFIPPEEVQKVMKRAHWDDEREVWVLERLSDIGKRETAQGASRRPVSASGQRRPTSDFAKLANAMGDMNPRFKSENILNLELDLPERTTYDYEGPGVDPRVQAAINAAFAEDGELIFVGSEQNVHLGDASAAAARPDSAKKRPASARKGTKK
B2 was tested, and the “stoichiometry N” value [4] was 1.
